pKd: −log10 of the molar value.
Key:
[1] = molecular target: T1, heat shock factor 1 (HSF1) (Homo sapiens, UniProt Q00613); experiment: intrinsic tryptophan fluorescence titration, Scatchard plot; supported by EMSA, CD, light scattering; format: binding
T1 construct: purified full length HSF1, N-terminal his6 tag, expressed in E. coli
T1 sequence (Q00613 1-529): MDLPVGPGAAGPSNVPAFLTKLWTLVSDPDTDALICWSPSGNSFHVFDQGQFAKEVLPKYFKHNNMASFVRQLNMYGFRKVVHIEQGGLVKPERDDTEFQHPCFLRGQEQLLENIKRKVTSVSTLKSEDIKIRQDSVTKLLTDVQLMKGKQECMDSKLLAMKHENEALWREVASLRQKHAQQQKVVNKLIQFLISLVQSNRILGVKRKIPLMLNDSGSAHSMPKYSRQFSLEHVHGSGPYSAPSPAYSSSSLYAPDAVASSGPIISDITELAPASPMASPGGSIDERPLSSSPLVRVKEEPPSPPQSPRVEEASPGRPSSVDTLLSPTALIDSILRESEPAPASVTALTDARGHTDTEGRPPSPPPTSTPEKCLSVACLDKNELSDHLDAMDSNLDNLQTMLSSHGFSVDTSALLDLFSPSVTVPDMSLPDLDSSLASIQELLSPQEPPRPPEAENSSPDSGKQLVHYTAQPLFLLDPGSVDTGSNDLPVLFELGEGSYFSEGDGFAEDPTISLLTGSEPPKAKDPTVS

[2] = system: his6-HSF1 (codon-optimized) (Homo sapiens); experiment: EMSA; details: Fluorescence: 2 uM HSF1, 0-10 uM HSE, room temperature, buffer not given; EMSA: 0.5 uM protein or 50 ug WCE, 1 ng 32P-HSE, buffer per cited reference, 4% PAGE
[3] = system: his6-HSF1 (codon-optimized) (Homo sapiens); experiment: tryptophan fluorescence quenching; details: room temperature, Fluorescence: 2 uM HSF1, 0-10 uM HSE, buffer not given, EMSA: 0.5 uM protein or 50 ug WCE, 1 ng 32P-HSE, buffer per cited reference, 4% PAGE

Compound | pKd [1] | binding signal (fold affinity increase with AZD) [2] | pKd ([3]; 5 uM azadiradione) | pKd ([3]; no AZD)
CC(=O)O[C@@H]1C[C@H]2C(C)(C)C(=O)C=C[C@]2(C)[C@H]2CC[C@]3(C)C(=CC(=O)[C@H]3c3ccoc3)[C@@]21C [AZD, azadiradione] | 5.87 |  |  | 
HSE (proximal HSE of hsp70A1A promoter) |  | > 2 | 6.46 | 6.10

Source: paper PMC5346638, “Azadiradione ameliorates polyglutamine expansion disease in Drosophila by potentiating DNA binding activity of heat shock factor 1” (Oncotarget, 2016)
